± gives the standard deviation of the averaged measurements.
B1: library; a variant is named by its letters at N, in order (parent)
chain: GCUGUCACCGAGAAACUGUGAAGUAUAUCUUAAACCUGGGCACUUAAAAGAUAUAUGGAGUUAGUAGUGCAACCUGCUCGGUCUGAUGAGUCCNNNNNNGGACGAAACAGC

Tests used:
cyclic di-GMP [1] = variants of: B1; experiment: FACS-Seq fitted mean relative fluorescence mCherry/BFP without ligand (log10 relative fluorescence); HEK293T; ligand: cyclic di-GMP (c-di-GMP-II aptamer); higher = higher reporter protein expression; settings: ligand present: no
Method: (§1)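 Hammerhead (sTRSV) ribozyme switch libraries with a ligand aptamer grafted on stem I and a randomized N4-6 loop II, cloned into the 3' UTR of mCherry and transiently transfected into HEK293T cells; RNA-Seq 72 h post transfection with ligand added 1 h before transfection; RNA read count / plasmid DNA read count normalized to the non-cleaving sTRSVctl (x100), log10; sequences with >100 DNA reads. FACS-Seq: lentiviral library sorted into 6 bins after 48 h ligand, log-normal fit mean of mCherry/BFP scaled to controls. Printed sequences are partial switch sequences.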

cyclic di-GMP [2] = variants of: B1; experiment: normalized RNA/DNA level without ligand (relative to sTRSVctl = 100) (log10 (% of sTRSVctl)); HEK293T; ligand: cyclic di-GMP (c-di-GMP-II aptamer); higher = less ribozyme self-cleavage, higher mRNA level; settings: reporter: mCherry (pCS4076), ligand present: no
Method: as §1

cyclic di-GMP [3] = variants of: B1; experiment: FACS-Seq fitted mean relative fluorescence mCherry/BFP with ligand (log10 relative fluorescence); HEK293T; ligand: cyclic di-GMP (c-di-GMP-II aptamer); ligand concentration (+) FACS-Seq: 1 mM; higher = higher reporter protein expression; settings: ligand present: yes
Method: as §1

cyclic di-GMP [4] = variants of: B1; experiment: normalized RNA/DNA level with ligand (relative to sTRSVctl = 100) (log10 (% of sTRSVctl)); HEK293T; ligand: cyclic di-GMP (c-di-GMP-II aptamer); ligand concentration (+) RNA-Seq: 1 mM; higher = less ribozyme self-cleavage, higher mRNA level; settings: reporter: mCherry (pCS4076), ligand present: yes
Method: as §1

Row | Variant | FACS-Seq fitted mean (log10) (cyclic di-GMP [1]) | normalized RNA/DNA level without ligand (log10) (cyclic di-GMP [2]) | FACS-Seq fitted mean (log10) (cyclic di-GMP [3]) | normalized RNA/DNA level with ligand (log10) (cyclic di-GMP [4])
1 | GAAGCA | -0.476 ± 0.078 | 1.8 ± 0.082 | -0.329 ± 0.2 | 1.88 ± 0.15
2 | GAAGCG | -0.36 ± 0.013 | 1.841 ± 0.018 | -0.268 ± 0.16 | 1.87 ± 0.069
3 | CACCUA | -0.26 ± 0.028 | 1.36 ± 0.15 | 0.0161 ± 0.13 | 1.58 ± 0.12
4 | CACCUU | -0.0716 ± 0.019 | 1.48 ± 0.076 | 0.228 ± 0.071 | 1.67 ± 0.066
5 | CACUUG | -0.104 ± 0.083 | 1.74 ± 0.026 | 0.131 ± 0.0033 | 1.87 ± 0.12
6 | CACUUA | -0.231 ± 0.015 | 1.43 ± 0.04 | -0.0377 ± 0.081 | 1.59 ± 0.11
7 | UACGAA | -0.516 ± 0.06 | 1.61 ± 0.03 | -0.204 ± 0.067 | 1.76 ± 0.1
8 | GACAUA | -0.45 ± 0.0083 | 1.52 ± 0.04 | -0.156 ± 0.096 | 1.68 ± 0.064
9 | AACCCC | -0.0752 ± 0.016 | 1.78 ± 0.046 | 0.263 ± 0.041 | 1.89 ± 0.14
10 | AACCCU | 0.095 ± 0.16 | 1.69 ± 0.032 | 0.195 ± 0.28 | 1.84 ± 0.082
11 | UACCCU | -0.513 ± 0.0088 | 1.74 ± 0.024 | -0.201 ± 0.055 | 1.87 ± 0.09
12 | UACCCA | -0.0154 ± 0.2 | 1.73 ± 0.074 | 0.278 ± 0.097 | 1.86 ± 0.13
13 | AAACGG | -0.275 ± 0.019 | 1.5 ± 0.12 | 0.0867 ± 0.11 | 1.7 ± 0.1
14 | CACAAA | -0.504 ± 0.031 | 1.24 ± 0.14 | -0.278 ± 0.055 | 1.46 ± 0.12
15 | AACCAA | -0.517 ± 0.035 | 1.43 ± 0.082 | -0.235 ± 0.052 | 1.63 ± 0.1
16 | AACCAU | -0.0934 ± 0.098 | 1.6 ± 0.025 | 0.0926 ± 0.016 | 1.76 ± 0.15
17 | AAAAUC | 0.0212 ± 0.1 | 1.62 ± 0.028 | 0.2003 ± 0.0016 | 1.76 ± 0.06
18 | AAAAUU | -0.708 ± 0.058 | 1.62 ± 0.034 | -0.4137 ± 0.00058 | 1.76 ± 0.085
19 | AAAAUG | -0.0352 ± 0.079 | 1.5 ± 0.05 | 0.319 ± 0.046 | 1.7 ± 0.12
20 | GACGGA | -0.135 ± 0.078 | 1.47 ± 0.078 | 0.0761 ± 0.072 | 1.63 ± 0.076
21 | AAACAA | -0.921 ± 0.12 | 1.44 ± 0.051 | -0.77 ± 0.014 | 1.62 ± 0.1
22 | AAACAU | -0.286 ± 0.077 | 1.6 ± 0.019 | -0.0737 ± 0.18 | 1.77 ± 0.11
23 | AAACAC | -0.457 ± 0.011 | 1.6 ± 0.035 | -0.124 ± 0.07 | 1.75 ± 0.082
24 | AAACAG | -0.103 ± 0.1 | 1.55 ± 0.053 | 0.169 ± 0.015 | 1.73 ± 0.095

Row | Variant | FACS-Seq fitted mean (log10) (cyclic di-GMP [1]) | normalized RNA/DNA level without ligand (log10) (cyclic di-GMP [2]) | FACS-Seq fitted mean (log10) (cyclic di-GMP [3]) | normalized RNA/DNA level with ligand (log10) (cyclic di-GMP [4])
25 | GACCUA | -0.232 ± 0.041 | 1.621 ± 0.011 | 0.101 ± 0.016 | 1.77 ± 0.11
26 | GACCUG | -0.44 ± 0.12 | 1.66 ± 0.022 | -0.213 ± 0.13 | 1.81 ± 0.11
27 | GAACUA | -0.288 ± 0.19 | 1.6 ± 0.068 | 0.0146 ± 0.12 | 1.77 ± 0.091
28 | AACGGA | -0.525 ± 0.046 | 1.32 ± 0.14 | -0.253 ± 0.067 | 1.53 ± 0.13
29 | AAAGCU | -0.569 ± 0.092 | 1.63 ± 0.063 | -0.245 ± 0.025 | 1.78 ± 0.099
30 | UAAUCG | -0.029 ± 0.037 | 1.7 ± 0.017 | 0.149 ± 0.061 | 1.82 ± 0.17
31 | UAAUCU | -0.884 ± 0.042 | 1.718 ± 0.0051 | -0.707 ± 0.054 | 1.85 ± 0.08
32 | AACUGA | -0.155 ± 0.014 | 1.54 ± 0.047 | 0.0803 ± 0.017 | 1.68 ± 0.12
33 | AACUGG | -0.198 ± 0.17 | 1.59 ± 0.049 | 0.149 ± 0.048 | 1.77 ± 0.17
34 | CAAUAU | -0.659 ± 0.028 | 1.49 ± 0.061 | -0.365 ± 0.019 | 1.67 ± 0.11
35 | CAAUAA | -0.688 ± 0.028 | 1.25 ± 0.083 | -0.398 ± 0.011 | 1.52 ± 0.074
36 | UAAGGA | -0.894 ± 0.046 | 1.54 ± 0.1 | -0.73 ± 0.051 | 1.7 ± 0.066
37 | GAAUAA | -0.287 ± 0.05 | 1.44 ± 0.067 | -0.0182 ± 0.045 | 1.68 ± 0.15
38 | GAAUAG | -0.662 ± 0.05 | 1.64 ± 0.018 | -0.40149 ± 0.00037 | 1.78 ± 0.15
39 | GAAUGG | -0.119 ± 0.036 | 1.62 ± 0.041 | 0.0864 ± 0.016 | 1.75 ± 0.086
40 | GAAUGC | 0.00373 ± 0.18 | 1.63 ± 0.013 | 0.31 ± 0.049 | 1.75 ± 0.12
41 | GAAUGA | -0.606 ± 0.037 | 1.48 ± 0.06 | -0.296 ± 0.056 | 1.65 ± 0.16
42 | CACAGU | -0.189 ± 0.13 | 1.74 ± 0.045 | 0.105 ± 0.062 | 1.85 ± 0.064
43 | CACAGA | -0.384 ± 0.025 | 1.53 ± 0.058 | -0.0508 ± 0.039 | 1.74 ± 0.1
44 | UACGCU | -0.169 ± 0.063 | 1.71 ± 0.032 | 0.108 ± 0.051 | 1.86 ± 0.098
45 | UAAGUG | 0.0931 ± 0.039 | 1.61 ± 0.022 | 0.27 ± 0.01 | 1.78 ± 0.12
46 | UAAGUA | -0.292 ± 0.034 | 1.609 ± 0.0095 | -0.0651 ± 0.011 | 1.78 ± 0.086
47 | UAAGUU | 0.0182 ± 0.011 | 1.577 ± 0.0025 | 0.229 ± 0.08 | 1.77 ± 0.094
48 | AACAGA | -0.897 ± 0.023 | 1.39 ± 0.14 | -0.683 ± 0.0078 | 1.59 ± 0.11

Row | Variant | FACS-Seq fitted mean (log10) (cyclic di-GMP [1]) | normalized RNA/DNA level without ligand (log10) (cyclic di-GMP [2]) | FACS-Seq fitted mean (log10) (cyclic di-GMP [3]) | normalized RNA/DNA level with ligand (log10) (cyclic di-GMP [4])
49 | AACAGU | -1.23 ± 0.038 | 1.57 ± 0.076 | -1.08 ± 0.027 | 1.76 ± 0.063
50 | CACGCA | -0.406 ± 0.0063 | 1.61 ± 0.04 | -0.00856 ± 0.11 | 1.79 ± 0.11
51 | UACCAU | -0.473 ± 0.0049 | 1.663 ± 0.0085 | -0.0951 ± 0.092 | 1.8 ± 0.12
52 | GAAGAU | -0.28 ± 0.1 | 1.5 ± 0.088 | 0.0337 ± 0.016 | 1.65 ± 0.14
53 | GAAGAA | -0.423 ± 0.0092 | 1.38 ± 0.15 | -0.233 ± 0.045 | 1.59 ± 0.08
54 | UAACGC | -0.0408 ± 0.21 | 1.66 ± 0.04 | 0.122 ± 0.082 | 1.79 ± 0.17
55 | UAACGU | -0.388 ± 0.07 | 1.51 ± 0.095 | -0.125 ± 0.05 | 1.71 ± 0.12
56 | UAACGG | -0.162 ± 0.15 | 1.6716 ± 2.5e-05 | 0.21 ± 0.0062 | 1.82 ± 0.1
57 | UAACGA | -0.0411 ± 0.064 | 1.59 ± 0.026 | 0.272 ± 0.15 | 1.76 ± 0.089
58 | GACUUA | -0.438 ± 0.043 | 1.5846 ± 6e-05 | -0.219 ± 0.05 | 1.76 ± 0.1
59 | GACUUG | -0.257 ± 0.031 | 1.63 ± 0.023 | -0.0923 ± 0.026 | 1.79 ± 0.12
60 | GACUUU | -0.222 ± 0.11 | 1.723 ± 0.0052 | 0.162 ± 0.028 | 1.85 ± 0.083
61 | AACGAG | -0.834 ± 0.078 | 1.53 ± 0.1 | -0.763 ± 0.099 | 1.71 ± 0.069
62 | AACGAU | -0.207 ± 0.075 | 1.57 ± 0.052 | 0.0583 ± 0.17 | 1.76 ± 0.096
63 | CAAUGU | 0.349 ± 0.071 | 1.75 ± 0.019 | 0.4491 ± 0.001 | 1.87 ± 0.11
64 | GAACCC | 0.196 ± 0.15 | 1.82 ± 0.026 | 0.39 ± 0.019 | 1.91 ± 0.12
65 | AACAAU | -0.133 ± 0.038 | 1.594 ± 0.0028 | 0.103 ± 0.014 | 1.71 ± 0.13
66 | AACAAG | -0.43 ± 0.028 | 1.523 ± 0.0073 | -0.281 ± 0.037 | 1.73 ± 0.088
67 | AACAUG | 0.0898 ± 0.039 | 1.54 ± 0.053 | 0.286 ± 0.039 | 1.72 ± 0.081
68 | AACAUC | -0.233 ± 0.056 | 1.593 ± 0.012 | 0.0469 ± 0.033 | 1.75 ± 0.13
69 | CAAGUA | -0.495 ± 0.0052 | 1.46 ± 0.13 | -0.203 ± 0.02 | 1.63 ± 0.07
70 | CAAGUU | -0.164 ± 0.058 | 1.71 ± 0.027 | 0.078 ± 0.065 | 1.86 ± 0.12
71 | CAAAUA | -0.296 ± 0.0065 | 1.28 ± 0.11 | -0.211 ± 0.2 | 1.46 ± 0.14
72 | CAAAUU | -0.59 ± 0.046 | 1.45 ± 0.12 | -0.349 ± 0.046 | 1.67 ± 0.076
